Test results from US20220235380.

Biological target: ALPG/P priming receptor encoded by the LG1 + FAS/PTPN2 shRNA circuits AB-1013, AB-1014 and AB-1015
Sequence (chain, as listed by the source): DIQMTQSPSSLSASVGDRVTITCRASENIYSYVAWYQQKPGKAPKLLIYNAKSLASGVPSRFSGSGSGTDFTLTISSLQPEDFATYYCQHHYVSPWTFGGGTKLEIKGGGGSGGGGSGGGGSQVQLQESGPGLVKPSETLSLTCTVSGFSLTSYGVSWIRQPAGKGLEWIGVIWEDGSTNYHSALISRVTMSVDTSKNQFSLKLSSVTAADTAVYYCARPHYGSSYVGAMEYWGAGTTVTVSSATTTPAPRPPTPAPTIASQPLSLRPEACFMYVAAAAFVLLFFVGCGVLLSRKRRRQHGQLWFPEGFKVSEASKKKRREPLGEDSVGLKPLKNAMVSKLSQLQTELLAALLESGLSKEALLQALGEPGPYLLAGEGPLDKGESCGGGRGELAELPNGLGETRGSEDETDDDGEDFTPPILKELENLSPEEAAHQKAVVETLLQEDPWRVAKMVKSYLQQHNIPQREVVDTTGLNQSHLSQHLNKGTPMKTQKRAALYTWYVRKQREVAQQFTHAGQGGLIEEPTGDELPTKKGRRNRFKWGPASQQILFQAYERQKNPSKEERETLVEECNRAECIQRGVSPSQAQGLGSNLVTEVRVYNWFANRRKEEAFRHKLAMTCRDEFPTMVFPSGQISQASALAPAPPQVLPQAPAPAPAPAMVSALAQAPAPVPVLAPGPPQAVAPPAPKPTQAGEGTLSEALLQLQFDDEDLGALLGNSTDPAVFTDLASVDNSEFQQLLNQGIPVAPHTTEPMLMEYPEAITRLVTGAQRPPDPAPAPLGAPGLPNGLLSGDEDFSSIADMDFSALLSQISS

B1: Alkaline Phosphatase, Germ Cell (ALPG), expressed on engineered K562 cells (protein)
chain: IIPVEEENPDFWNRQAAEALGAAKKLQPAQTAAKNLIIFLGDGMGVSTVTAARILKGQKKDKLGPETFLAMDRFPYVALSKTYSVDKHVPDSGATATAYLCGVKGNFQTIGLSAAARFNQCNTTRGNEVISVMNRAKKAGKSVGVVTTTRVQHASPAGAYAHTVNRNWYSDADVPASARQEGCQDIATQLISNMDIDVILGGGRKYMFPMGTPDPEYPDDYSQGGTRLDGKNLVQEWLAKHQGARYVWNRTELLQASLDPSVTHLMGLFEPGDMKYEIHRDSTLDPSLMEMTEAALLLLSRNPRGFFLFVEGGRIDHGHHESRAYRALTETIMFDDAIERAGQLTSEEDTLSLVTADHSHVFSFGGYPLRGSSIFGLAPGKARDRKAYTVLLYGNGPGYVLKDGARPDVTESESGSPEYRQQSAVPLDGETHAGEDVAVFARGPQAHLVHGVQEQTFIAHVMAFAACLEPYTACDLAPRAGTTD
  % CAR Conversion, time to peak: reached a peak after around 100 hours of stimulation with the PrimeR antigen
